Tests used:
[1] = tested on: zymosan A-induced foot edema; experiment: Zymosan A-induced rat foot edema; type: in vivo; conditions: 2000 U IV, foot volume after 2 hours
Experimental: Six to eight-week-old female Long Evans rats (Charles River, Wilmington, Mass.), weighing 180-200 grams, were used for all experiments. Prior to experimental manipulations, animals were anesthetized with a mixture of the anesthetics Ketaset (Fort Dodge laboratories, Fort Dodge, Iowa), Rompun (Miles, Shawnee Mission, Kans.), and Ace Promazine (Aveco, Fort Dodge, Iowa) administered subcutaneously at approximately 2.5 mg Ketaset, 1.6 mg Rompun, 0.2 mg Ace Promazine per animal per dose. Edema was induced in the foot by administration of either PAF or zymosan as follows. […] Animals received 50 μl PAF (final dose of 0.96 nmoles) subcutaneously between the hind foot pads, and edema was assessed after 1 hour and again after 2 hours in some experiments. […] Animals received 50 μl of zymosan (final dose of 500 μg) subcutaneously between the hind foot pads and edema was assessed after 2 hours.
Edema was quantitated by measuring the foot volume immediately prior to administration of PAF or zymosan and at indicated time point post-challenge with PAF or zymosan. Edema is expressed as the increase in foot volume in milliliters. […]
Rats (N=4 per group) were pretreated IV with either PAF-AH (2000 U in 300 μl carrier) or carrier alone. Fifteen minutes after pretreatment, groups received either PAF or zymosan A, and foot volume was assessed after 1 and 2 hours, respectively.

[2] = Pharmacokinetics of PAF-AH in rat circulation (double mAb capture ELISA); type: in vivo; conditions: 2000 U IV, mean ±SEM
Experimental: Four rats received 2000 U of PAF-AH by IV injection in a 300 μl volume. Plasma was collected at various time points and stored at 4° C. and plasma concentrations of PAF-AH were determined by ELISA using a double mAb capture assay. In brief, monoclonal antibody 90G11D (Example 13) was diluted in 50 mM carbonate buffer pH 9.6 at 100 ng/ml and immobilized on Immulon 4 ELISA plates overnight at 4° C. After extensive washing with PBS containing 0.05/Tween 20, the plates were blocked for 1 hour at room temperature with 0.5% fish skin gelatin (Sigma) diluted in PBS. Serum samples diluted in PBS with 15 mM CHAPS were added in duplicate to the washed ELISA plate and incubated for 1 hour at room temperature. After washing, a biotin conjugate of monoclonal antibody 90F2D (Example 13) was added to the wells at a concentration of 5 μg/ml diluted in PBS and incubated for 1 hour at room temperature. After washing, 50 μl of a 1:1000 dilution of ExtraAvidin (Sigma) was added to the wells and incubated for 1 hour at room temperature. After washing, wells were developed using OPD as a substrate and quantitated. Enzyme activity was then calculated from a standard curve. […]

[3] = tested on: OVA-induced eosinophil infiltration of the trachea; experiment: Antigen-induced eosinophil recruitment to trachea; type: in vivo, mouse; conditions: 750 units IV before and 24 h after aerosolized OVA (group 4)
Experimental: Recombinant PAF-AH enzyme of the invention was also tested for efficacy in a model of antigen-induced eosinophil recruitment. The accumulation of eosinophils in the airway is a characteristic feature of late phase immune responses which occur in asthma, rhinitis and eczema. BALB/c mice (Charles River) were sensitized by two intraperitoneal injections consisting of 1 μg of ovalbumin (OVA) in 4 mg of aluminum hydroxide (Imject alum, Pierce Laboratories, Rockford. Ill.) given at a 2 week interval. Fourteen days following the second immunization, the sensitized mice were challenged with either aerosolized OVA or saline as a control.
Prior to challenge mice were randomly placed into four groups, with four mice/group. […] Mice in groups 2 and 4 were pretreated with 750 units of PAF-AH (activity of 5,500 units/ml given in 140 μl of PAF-AH buffer). Thirty minutes following administration of PAF-AH or buffer, mice in groups 1 and 2 were exposed to aerosolized PBS as described below, while mice in groups 3 and 4 were exposed to aerosolized OVA. Twenty-four hours later mice were treated a second time with either 140 μl of buffer (groups 1 and 3) or 750 units of PAF-AH in 140 μl of buffer (groups 2 and 4) given by intravenous injection.
Eosinophil infiltration of the trachea was induced in the sensitized mice by exposing the animals to aerosolized OVA. […]

B1: PAF-AH: Recombinant human plasma platelet-activating factor acetylhydrolase (beginning at Ile42) expressed in E. coli from construct pUC trp AH (protein)
chain: IQVLMAAASFGQTKIPRGNGPYSVGCTDLMFDHTNKGTFLRLYYPSQDNDRLDTLWIPNKEYFWGLSKFLGTHWLMGNILRLLFGSMTTPANWNSPLRPGEKYPLVVFSHGLGAFRTLYSAIGIDLASHGFIVAAVEHRDRSASATYYFKDQSAAEIGDKSWLYLRTLKQEEETHIRNEQVRQRAKECSQALSLILDIDHGKPVKNALDLKFDMEQLKDSIDREKIAVIGHSFGGATVIQTLSEDQRFRCGIALDAWMFPLGDEVYSRIPQPLFFINSEYFQYPANIIKMKKCYSPDKERKMITIRGSVHQNFADFTFATGKIIGHMLKLKGDIDSNVAIDLSNKASLAFLQKHLGLHKDFDQWDCLIEGDDENLIPGTNINTTNQHIMLQNSSGIEKYN
Effect on zymosan induced edema [1]: failed to block zymosan induced edema | Plasma enzyme level at one hour [2]: 374 U/ml | Eosinophils in the submucosal tissue of the trachea [3]: very few eosinophils in the submucosal tissue
